Source: patent US20230365649A1 (published 2023)

T1: KRAS G13D (G13D RAS; the same in KRAS, HRAS and NRAS) peptide on HLA-DQA1*05:01 / HLA-DQB1*03:01 (human)
T1 peptide: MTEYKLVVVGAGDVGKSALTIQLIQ

T2: KRAS wild type (WT 25-mer) peptide on HLA-DQA1*05:01 / HLA-DQB1*03:01 (human)
T2 peptide: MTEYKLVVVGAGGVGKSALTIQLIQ


Experiments:
[1] = target: T1, KRAS G13D (G13D RAS; the same in KRAS, …); assay: cytokine release
[2] = target: T2, KRAS wild type (WT 25-mer) peptide on …; assay: cytokine release
[3] = target: T1, KRAS G13D (G13D RAS; the same in KRAS, …); assay: activation reporter or marker
[4] = target: T2, KRAS wild type (WT 25-mer) peptide on …; assay: activation reporter or marker

Binder	binding result [1]	binding result [2]	binding result [3]	binding result [4]
4400 TCR-A1 (TCR, V domains shown) Valpha: QKEVEQDPGPLSVPEGAIVSLNCTYSNSAFQYFMWYRQYSRKGPELLMYTYSSGNKEDGRFTAQVDKSSKYISLFIRDSQPSDSATYLCAMRANTDKLIFGTGTRLQVFP Vbeta: DVKVTQSSRYLVKRTGEKVFLECVQDMDHENMFWYRQDPGLGLRLIYFSYDVKMKEKGDIPEGYSVSREKKERFSLILESASTNQTSMYLCASRLGNTGELFFGEGSRLTVL	recognises	no recognition		
4400 TCR-N13 (TCR, V domains shown) Valpha: QKEVEQDPGPLSVPEGAIVSLNCTYSNSAFQYFMWYRQYSRKGPELLMYTYSSGNKEDGRFTAQVDKSSKYISLFIRDSQPSDSATYLCAMRANTDKLIFGTGTRLQVFP Vbeta: DVKVTQSSRYLVKRTGEKVFLECVQDMDHENMFWYRQDPGLGLRLIYFSYDVKMKEKGDIPEGYSVSREKKERFSLILESASTNQTSMYLCASRVGNTGELFFGEGSRLTVL			recognises	no recognition
4400 TCR-N (TCR, V domains shown) Valpha: GEDVEQSLFLSVREGDSSVINCTYTDSSSTYLYWYKQEPGAGLQLLTYIFSNMDMKQDQRLTVLLNKKDKHLSLRIADTQTGDSAIYFCAPGGYNKLIFGAGTRLAVHP Vbeta: DVKVTQSSRYLVKRTGEKVFLECVQDMDHENMFWYRQDPGLGLRLIYFSYDVKMKEKGDIPEGYSVSREKKERFSLILESASTNQTSMYLCASRIGNTGELFFGEGSRLTVL	recognises	no recognition		
4400 TCR-N12 (TCR, V domains shown) Valpha: QKEVEQDPGPLSVPEGAIVSLNCTYSNSAFQYFMWYRQYSRKGPELLMYTYSSGNKEDGRFTAQVDKSSKYISLFIRDSQPSDSATYLCAMSYSGGGADGLTFGKGTHLIIQP Vbeta: DVKVTQSSRYLVKRTGEKVFLECVQDMDHENMFWYRQDPGLGLRLIYFSYDVKMKEKGDIPEGYSVSREKKERFSLILESASTNQTSMYLCASSTGNTGELFFGEGSRLTVL			recognises	no recognition
4400 TCR-A3 (TCR, V domains shown) Valpha: KTTQPNSMESNEEEPVHLPCNHSTISGTDYIHWYRQLPSQGPEYVIHGLTSNVNNRMASLAIAEDRKSSTLILHRATLRDAAVYYCILRAPSGTYKYIFGTGTRLKVLA Vbeta: DVKVTQSSRYLVKRTGEKVFLECVQDMDHENMFWYRQDPGLGLRLIYFSYDVKMKEKGDIPEGYSVSREKKERFSLILESASTNQTSMYLCASRQGNTGELFFGEGSRLTVL			recognises	no recognition
4400 TCR-A2 (TCR, V domains shown) Valpha: QKEVEQDPGPLSVPEGAIVSLNCTYSNSAFQYFMWYRQYSRKGPELLMYTYSSGNKEDGRFTAQVDKSSKYISLFIRDSQPSDSATYLCAMRANTDKLIFGTGTRLQVFP Vbeta: DVKVTQSSRYLVKRTGEKVFLECVQDMDHENMFWYRQDPGLGLRLIYFSYDVKMKEKGDIPEGYSVSREKKERFSLILESASTNQTSMYLCASRQGNTGELFFGEGSRLTVL	recognises	no recognition		

Other lines, results leading:

binding result [1]	binding result [2]	binding result [3]	binding result [4]	Binder
recognises	no recognition			4400 TCR-J (TCR, V domains shown) Valpha: QKEVEQDPGPLSVPEGAIVSLNCTYSNSAFQYFMWYRQYSRKGPELLMYTYSSGNKEDGRFTAQVDKSSKYISLFIRDSQPSDSATYLCAMSYSGGGADGLTFGKGTHLIIQP Vbeta: DVKVTQSSRYLVKRTGEKVFLECVQDMDHENMFWYRQDPGLGLRLIYFSYDVKMKEKGDIPEGYSVSREKKERFSLILESASTNQTSMYLCASSQGNTGELFFGEGSRLTVL
		recognises	no recognition	4400 TCR-J2 (TCR, V domains shown) Valpha: NSVTQMEGPVTLSEEAFLTINCTYTATGYPSLFWYVQYPGEGLQLLLKATKADDKGSNKGFEATYRKETTSFHLEKGSVQVSDSAVYFCALRLSGAGSYQLTFGKGTKLSVIP Vbeta: DVKVTQSSRYLVKRTGEKVFLECVQDMDHENMFWYRQDPGLGLRLIYFSYDVKMKEKGDIPEGYSVSREKKERFSLILESASTNQTSMYLCASSQGNTGELFFGEGSRLTVL
recognises	no recognition			4400 TCR-E (TCR, V domains shown) Valpha: DAKTTQPPSMDCAEGRAANLPCNHSTISGNEYVYWYRQIHSQGPQYIIHGLKNNETNEMASLIITEDRKSSTLILPHATLRDTAVYYCIVRVAKSGANNLFFGTGTRLTVIP Vbeta: EADIYQTPRYLVIGTGKKITLECSQTMGHDKMYWYQQDPGMELHLIHYSYGVNSTEKGDLSSESTVSRIRTEHFPLTLESARPSHTSQYLCASSGLTYTDTQYFGPGTRLTVL
		recognises	no recognition	4400 TCR-N4 (TCR, V domains shown) Valpha: QKITQTQPGMFVQEKEAVTLDCTYDTSDPSYGLFWYKQPSSGEMIFLIYQGSYDQQNATEGRYSLNFQKARKSANLVISASQLGDSAMYFCAMRERSGTASKLTFGTGTRLQVTL Vbeta: DVKVTQSSRYLVKRTGEKVFLECVQDMDHENMFWYRQDPGLGLRLIYFSYDVKMKEKGDIPEGYSVSREKKERFSLILESASTNQTSMYLCASSLGVGSNYGYTFGSGTRLTVV
		recognises	no recognition	4400 TCR-20 (TCR, V domains shown) Valpha: QKITQTQPGMFVQEKEAVTLDCTYDTSDPSYGLFWYKQPSSGEMIFLIYQGSYDQQNATEGRYSLNFQKARKSANLVISASQLGDSAMYFCAMRERSGGSYIPTFGRGTSLIVHP Vbeta: DVKVTQSSRYLVKRTGEKVFLECVQDMDHENMFWYRQDPGLGLRLIYFSYDVKMKEKGDIPEGYSVSREKKERFSLILESASTNQTSMYLCASSLGTFNQPQHFGDGTRLSIL
		recognises	no recognition	4400 TCR-C (TCR, V domains shown) Valpha: QKITQTQPGMFVQEKEAVTLDCTYDTSDPSYGLFWYKQPSSGEMIFLIYQGSYDQQNATEGRYSLNFQKARKSANLVISASQLGDSAMYFCAMRERTGTASKLTFGTGTRLQVTL Vbeta: DVKVTQSSRYLVKRTGEKVFLECVQDMDHENMFWYRQDPGLGLRLIYFSYDVKMKEKGDIPEGYSVSREKKERFSLILESASTNQTSMYLCASSPGTENSPLHFGNGTRLTVT
